Patent publication US20100173430A1 (KOREAN RESEARCH INSTITUTE OF BIOSCIENCE AND BIOTECHNOLOGY, published 2010)

Legend:
[1] = molecular target: T1, anti-human Kallikrein 3/PSA antibody (R&D systems); test: SPR (BIAcore); protein G variant layer on gold thin film, anti-PSA antibody 0.5 ug/ml injected
T1 construct: also called antibody against PSA
Method: Then, antigens (Recombinant Human kallikrein 3/PSA, 0.5 μg/ml) were reacted with the antibodies. As a result, the change in the surface plasmon resonance signals of the untagged recombinant protein increased by 7 RU, the same change of the recombinant protein tagged with one cysteine residue increased by 49 RU, the same change of the recombinant protein tagged with two cysteine residues increased by 41 RU, and the same change of the recombinant protein tagged with three cysteine residues increased by 74 RU.
A gold thin film chip was treated with a mixed solution (65° C.) of 95% sulfuric acid and 30% aqueous hydrogen peroxide (volume ratio 3:1) for 30 minutes, and then the chip was washed sequentially with double distilled water, ethanol and double distilled water. Subsequently, the chip was dried with nitrogen gas and mounted on a BIA-core surface plasmon resonance sensor. 150 μl each of 200 μg/ml solutions of recombinant proteins tagged with one, two and three cysteine residues, respectively, and of an untagged recombinant protein (control) were introduced to the gold thin film surface of the mounted chip at a flow rate of 5 μl/min, so as to immobilize the proteins. After reacting the gold thin film surface and the aforementioned proteins, 100 μl of BSA (3 mg/ml) was introduced at a flow rate of 5 μl/min to prevent non-specific reactions. Subsequently, 100 μl of an antibody (0.5 μg/ml, anti-human Kallikrein 3/PSA antibody, R&D systems) was introduced at a flow rate of 5 μl/min, and the biosensor with immobilized antibody and 50 μl of an antigen (0.5 μg/ml, Recombinant Human Kallikrein 3/PSA) were allowed to react. Then, changes in the plasmon resonance signal was detected (FIG. 8).

human IgG (Sigma) = molecular target: T2, human IgG (Sigma) (human); test: SPR (BIAcore); protein G variant layer on gold thin film, human IgG 100 ug/ml injected
T2 construct: also called human antibody; antibody (100 µg/ml, human IgG, Sigma)
Method: A gold thin film chip was treated with a mixed solution (65° C.) of 95% sulfuric acid and 30% aqueous hydrogen peroxide (volume ratio 3:1) for 30 minutes, and then the chip was washed sequentially with double distilled water, ethanol and double distilled water. Subsequently, the chip was dried with nitrogen gas and mounted on a BIA-core surface plasmon resonance sensor. 150 μl each of 200 μg/ml solutions of recombinant proteins tagged with one, two and three cysteine residues, respectively, and of an untagged recombinant protein were introduced to the gold thin film surface of the mounted chip at a flow rate of 5 μl/min, so as to immobilize the proteins. After reacting the gold thin film surface and the aforementioned proteins, 100 μl of BSA (3 mg/ml) was introduced at a flow rate of 5 μl/min to prevent non-specific reactions. Subsequently, 100 μl of an antibody (100 μg/ml, human IgG, Sigma) was introduced at a flow rate of 5 μl/min to produce a biosensor in which protein G variant and the antibody were immobilized on a gold thin film, and the changes in the plasmon resonance signals were measured (FIG. 5).

[2] = molecular target: T3, streptavidin-Cy3 from Streptomyces avidinii (S6420 SIGMA-ALDRICH) (Streptomyces avidinii, UniProt P22629 37-163, limits assumed, Cy3 label); test: microarray on maleimide glass carrying the protein G variant, fluorescence scanner
T3 construct: Control protein of the microarray experiment; also called control
Method: A glass surface was immersed in a piranha solution (sulfuric acid:hydrogen peroxide, 3:1 v/v) and allowed to react in an oven at 90° C. for 20 minutes. After the reaction, the glass surface was washed with water and ethanol, and then was immersed in ethanol containing 1% APTS ((3-Aminopropyl)trimethoxysilane, 09326, SIGMA-ALDRICH) for 15 to 20 minutes to react, so as to provide an aminated surface. After completion of the reaction, the glass surface was washed with ethanol, and subsequently heated in an oven at 100° C. until the time of use. The prepared aminated surface was immersed in a 10 mM solution of BMPS (N-[b-Maleimidopropyloxy]succinimide ester, 22298, PIERCE, USA) dissolved in DMSO (dimethyl sulfoxide, D2650, SIGMA-ALDRICH) to react for about 30 minutes. The maleimide groups provided on the final glass surface, which groups would be covalently bonded to SH groups, were reacted with Streptococcal protein G variants tagged with one, two or three cysteine residues on the glass surface to immobilize the protein. On the surface where a series of Streptococcal protein G variants were immobilized, an antibody labeled with a fluorescent labeling substance, monoclonal anti-biotin Cy3 (C5585, SIGMA-ALDRICH), and a control, streptavidin-Cy3 (streptavidin-Cy3 from Streptomyces avidinii, S6420 SIGMA-ALDRICH) were arranged into an array using a microarrayer, and then the degree of specific protein binding and the effect of non-specific binding were measured using a fluorescence scanner. As a result, no fluorescent signal of Streptavidin-Cy3 (1 mg/ml) was detected, and since the fluorescent signal increased with an increase in the concentration of the antibody, Monoclonal anti-biotin Cy3, it was confirmed that the antibody reactions with Streptococcal protein G variants tagged with one, two and three cysteine residues were specifically achieved. Also, when the antibody was reacted after allowing the Streptococcal protein G variants to react at the same concentration, the reaction occurred at a low concentration of the antibody with a high binding power. […]

B1: Streptococcal protein G variant tagged with three cysteine residues at the N-terminus (other)
chain: MCCCDDDDKLKGETTTEAVDAATAEKVFKQYANDNGVDGEWTYDDATKTFTVTETYKLVIDGKTLKGETTTKAVDAETAEKAFKQYADDDGVDGVWTYDDATKTFTVTEHHHHHH
notes: Immobilised by its thiol groups on gold film, gold nano-particles or maleimide glass; also called cys3-G; protein produced from plasmid pET-cys3-L-proteinG
change in surface plasmon resonance signal [1]: 491 RU | change in surface plasmon resonance signal (human IgG (Sigma)): 4800 RU | fold increase of SPR signal change against the untagged recombinant protein (human IgG (Sigma)): ~4.8 times | binding result [2]: no binding (tested: 1 mg/ml)

B2: Streptococcal protein G variant tagged with one cysteine residue at the N-terminus (other)
chain: MCDDDDKLKGETTTEAVDAATAEKVFKQYANDNGVDGEWTYDDATKTFTVTETYKLVIDGKTLKGETTTKAVDAETAEKAFKQYADDDGVDGVWTYDDATKTFTVTEHHHHHH
notes: Immobilised by its thiol group on gold film, gold nano-particles or maleimide glass; also called cys1-G; protein produced from plasmid pET-cys1-L-proteinG
change in surface plasmon resonance signal [1]: 472 RU | change in surface plasmon resonance signal (human IgG (Sigma)): 4000 RU | fold increase of SPR signal change against the untagged recombinant protein (human IgG (Sigma)): ~4 times | binding result [2]: no binding (tested: 1 mg/ml)

B3: Streptococcal protein G variant tagged with two cysteine residues at the N-terminus (other)
chain: MCCDDDDKLKGETTTEAVDAATAEKVFKQYANDNGVDGEWTYDDATKTFTVTETYKLVIDGKTLKGETTTKAVDAETAEKAFKQYADDDGVDGVWTYDDATKTFTVTEHHHHHH
notes: Immobilised by its thiol groups on gold film, gold nano-particles or maleimide glass; also called cys2-G; protein produced from plasmid pET-cys2-L-proteinG
change in surface plasmon resonance signal [1]: 376 RU | change in surface plasmon resonance signal (human IgG (Sigma)): 3200 RU | fold increase of SPR signal change against the untagged recombinant protein (human IgG (Sigma)): ~3.2 times | binding result [2]: no binding (tested: 1 mg/ml)
